± gives the half width of the 95% confidence interval.
Experiments:
[1] = folding stability dG unfold from chymotrypsin proteolysis; higher = more stable
In short: (§1)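 Only designs with AlphaFold2 dimer inter-PAE above 15 were retained; each was a mini-protein under 80 residues with no cysteine, in a PA-tagged cDNA display construct. After digestion with trypsin and chymotrypsin and sequencing, K50 was inferred by Bayesian fitting of counts, and unfolding free energy was derived per protease or combined against a sequence-predicted unfolded-state K50 and a shared folded-state K50.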

[2] = folding stability dG unfold from trypsin proteolysis; higher = more stable
In short: as §1

[3] = folding stability dG unfold (combined trypsin and chymotrypsin); higher = more stable
In short: as §1

Sequence	folding stability dG unfold [1] [kcal/mol]	folding stability dG unfold [2] [kcal/mol]	folding stability dG unfold [3] [kcal/mol]
SAGGSAGGSVRIPGGQPNTKVTVTVRLPDGTPVEVEATVNPSGEITLDLPDVSPDLIESIELSSAGGSAGGS [r12_477_JUSTAS]	0.478 ± 0.027	1.14 ± 0.019	0.82 ± 0.038
SAGGSAGGSWGTISIRIEFNFMAFDPGLGQFSMFPMEVYISIPIEIPPPPPPPKPKYDNGKPKSAGGSAGGS [r12_140_TrROS]	4.52 ± 0.21	2.6 ± 0.28	3.78 ± 0.29
SAGGSAGGSWITPEWIEEIARYLARELGIDDVKIEVERRPDGYVTVEIRNPANGRKVEITVPWSAGGSAGGS [r12_1000_TrROS]	3.06 ± 0.1	3.38 ± 0.14	3.16 ± 0.19
SAGGSAGGSWIWVIKIENPEKGREYTFFIPGPLEDIKDHIREWNPDPDVKVEIQRIPVSPEAFSAGGSAGGS [r12_92_TrROS]	2.11 ± 0.096	1.68 ± 0.054	1.89 ± 0.094
SAGGSAGGSYLDPNKVYLVETEVVGDKVVFTLRDPETGETFVLEADASKEVLKPGDRVLALVASAGGSAGGS [r12_525_TrMRF]	1.97 ± 0.065	1.47 ± 0.047	1.82 ± 0.12
SAGGSAGGVIRMPFVIPDGYVIKDLTVHWSPGNGMFMIEIEIEPVKPPPPPEISPEELNKKNNKSAGGSAGG [r6_148_TrROS]	2.57 ± 0.04	2.15 ± 0.21	2.41 ± 0.12
SAGGSAGGVTINFPDGVTIMVDPGTGKIYIMNPNGYIFKFTIERKPNEWKLKIEPIKPIPPDDFSAGGSAGG [r6_324_TrROS]	3.7 ± 0.091	2.55 ± 0.085	3.16 ± 0.19
SAGGSAGGVVVVAKFPTREAVFVAPESLTPEQFAEALRRELGNPDAPLVDLEVRRVTPEELLAASAGGSAGG [r6_120_TrMRF]	1.05 ± 0.12	-0.269 ± 0.16	0.691 ± 0.15
SAGGSAGGWFYIMFPIPPGYKVEAEWKFPNGPKVKSEIHPDGPIMITIPPGMANMPDFEIKIEPSAGGSAGG [r6_237_TrROS]	3.77 ± 0.084	2.35 ± 0.12	3.2 ± 0.15
SAGGSAGGWIPVEELAKEFGFSPDFIEQLMKNGYKIEYEYHEPGWVRLSVENPDNGKKREITFPSAGGSAGG [r6_969_TrROS]	2.183 ± 0.019	1.43 ± 0.022	1.92 ± 0.053
SAGGSAGGWIRVDKVEPNPNDDMATVSVEMEDPGDGKKKKFNMTMPSDNPELIDKLPPGDWIEFSAGGSAGG [r6_979_TrROS]	0.215 ± 0.11	-0.621 ± 0.1	-0.1 ± 0.096
SAGGSAGGWPLMVEYTPPGDGKTQTYPIPIKGPLSEIKDQIKENMPPGFREVEISPANIEKILKSAGGSAGG [r6_889_TrROS]	-0.952 ± 0.5	-0.76 ± 0.39	< -1
SAGGSAGGWQPIAEHEFENPEDGKKIKIYYWPENGMMRIEFPNGRKHVIPPGDPFKSIEEMIKASAGGSAGG [r6_72_TrROS]	1.81 ± 0.059	1.15 ± 0.071	1.54 ± 0.14
SAGGSAGGYIMIPPGAEIDVNPENGKIKIKFRNPDNGEEEKITFDVPPGVKIHMWDNWIMIELPSAGGSAGG [r6_804_TrROS]	3.14 ± 0.12	3.3 ± 0.18	3.29 ± 0.29
SAGGSAGGYRIRFKNGIEFKLPMTEGELKKMADNFPGFEVTEVEPVPPPPPPPEDLPPEQREQMSAGGSAGG [r6_881_TrROS]	0.148 ± 0.23	-0.134 ± 0.36	-0.0695 ± 0.32
SAGGSAGIAKKNNLTLKVTVEKKGDKLLVTVEITYPDGTKKTITIELNIKLVPEVPPVHPDEPGFGSAGGSA [r15_843_TrMRF]	2.83 ± 0.1	2.58 ± 0.17	2.81 ± 0.095
SAGGSAGKIEIPLPELGEVREEPVPDTVRIEVRFPDGRVLEATVLKDDTIEIREKGTGKLVATLPASAGGSA [r15_656_TrMRF]	1.39 ± 0.043	1.44 ± 0.058	1.44 ± 0.12
SAGGSAGKKPVEFKVKIMIFNPENGDMYMIEMTITIDPDGQIKIKIKLPDPPRLPPGMVIFIMVYISAGGSA [r15_488_TrROS]	5.24 ± 0.085	4.08 ± 0.16	5.01 ± 0.16
SAGGSAGKPRPIDIWIPLPPGAEEVKIEQLDIFIPDGWRIRIEEIEIDPEDPGYIRVTVKIQPLDDSAGGSA [r15_852_TrROS]	2.78 ± 0.045	2.33 ± 0.1	2.56 ± 0.16
SAGGSAGLEGVAKAILDKLPPNRKIAAFTVNEEEAKTATFTTPDGNEINITAAGDKIASIDIIDAESAGGSA [r15_175_TrMRF]	0.429 ± 0.19	-1.09 ± 0.51	0.0224 ± 0.1
SAGGSAGLRVRLADGSELSVSPIPDKLRVVVTLPNGARIPIDVEDGELVEIVRDPAVPADFYIEEISAGGSA [r15_709_JUSTAS]	1.25 ± 0.043	0.419 ± 0.14	1.06 ± 0.1
SAGGSAGLTLTFGDKEITLTPNPDTDTFTGTYPDGKPFTFKLTDDELYITYPDGTKEKIPLKDIKNSAGGSA [r15_448_TrMRF]	1.42 ± 0.17	1.58 ± 0.066	1.54 ± 0.21
SAGGSAGMELVPLPSPQLVPLTVETTPLPETGTTLVTETSPLGERTVTRVDPAGNVTTLSSTSTSTSAGGSA [r15_790_JUSTAS]	-0.192 ± 0.12	-0.389 ± 0.033	-0.226 ± 0.12
SAGGSAGMMATKPVEVEVEIPPDDPEAAKERVEAEIKAAFPGPVEVETTSYDPEKGLLKVKVVIKKSAGGSA [r15_1024_JUSTAS]	0.0964 ± 0.19	-0.497 ± 0.41	0.256 ± 0.33
SAGGSAGMMTDVEVEEYPGTGLVRITIRTPDAVVSGEGRFLSPELLEITISFPGAGKRTNELIPVRSAGGSA [r15_837_JUSTAS]	1.26 ± 0.048	1.23 ± 0.072	1.2 ± 0.088
SAGGSAGMPDPPLEGLKEALREALAANPGEEVTLTVPRADGRTLTVRGTKDGGIEITLPDGTRIALSAGGSA [r15_73_JUSTAS]	1.52 ± 0.087	1.58 ± 0.036	1.58 ± 0.072
SAGGSAGMPKVRIPIEEDPENGNILIRVKMPNSGREHEYHIPGNLKEAKENFEDHFGFDITDVEIWSAGGSA [r15_101_TrROS]	-0.984 ± 0.58	0.364 ± 0.23	-0.0816 ± 0.38
